± gives the standard deviation of the averaged measurements.
Test system: ATP
Experiment: switch fluorescence ratio, 500 uM ATP over buffer (Cy3 cluster intensity, sum of 5 cycles each) (fold (ratio)); higher = stronger signal-on switching upon ATP binding; sequences stand for … in TCGTCGGCAGCGTCAGATGTGTATAAGAGACAGTTTTTTTTTTTTTTTTTTTTTTTTT…TC
Details: aptamer strand: ATP DNA aptamer (quencher-CACCTGGGGGAGTATTGCGGAGGAAGG + anchor), 100 nM annealed; ATP concentration: 500 uM
Method in brief: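 The quencher-labelled ATP aptamer, at 100 nM, was annealed to Cy3-labelled switching-strand clusters on a modified Illumina MiSeq flow-cell. The clusters were imaged in selection buffer, then after 15 min with 500 uM ATP at 22 °C, and this buffer/ATP cycle ran five times with NaOH stripping and re-annealing between runs. Per-cluster fluorescence ratios, summed target-cycle over summed buffer-cycle Cy3 intensity, were averaged per switch-domain sequence. Clusters outside 100-1000 RFU were excluded.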
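Note: ATP exposure 15 min at 22 °C before imaging.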

| Sequence | switch fluorescence ratio |
| --- | --- |
| AAATGAATTT | 0.976 ± 0.014 |
| AAATGAGGGG | 0.992 ± 0.03 |
| AAATGCTACG | 1.01 ± 0.029 |
| AAATGCTTAG | 0.995 ± 0.011 |
| AAATGGAGTA | 1.01 ± 0.007 |
| AAATGGGAGA | 0.992 ± 0.026 |
| AAATGGGGTC | 0.998 ± 0.023 |
| AAATGGGTGA | 1.05 ± 0.017 |
| AAATGGGTTG | 1 ± 0.01 |
| AAATGGTAAT | 0.978 ± 0.036 |
| AAATGTGCGA | 0.977 ± 0.019 |
| AAATGTGGCA | 0.9862 ± 0.002 |
| AAATGTGTGG | 0.977 ± 0.019 |
| AAATGTTCTG | 0.948 ± 0.021 |
| AAATGTTTTG | 1.03 ± 0.026 |
| AAATTAAGGG | 1.02 ± 0.03 |
| AAATTAATCA | 1.04 ± 0.094 |
| AAATTACAGT | 0.99493 ± 0.00079 |
| AAATTATGCG | 0.99 ± 0.023 |
| AAATTATTCG | 1.03 ± 0.045 |
| AAATTCACTT | 0.997 ± 0.021 |
| AAATTCCGTG | 0.978 ± 0.043 |
| AAATTCTTCT | 1.04 ± 0.04 |
| AAATTGAAAT | 1.01 ± 0.031 |
| AAATTGATGG | 1 ± 0.084 |

| Sequence | switch fluorescence ratio |
| --- | --- |
| AAATTGCTGT | 1.012 ± 0.0069 |
| AAATTGGCAG | 1.06 ± 0.16 |
| AAATTGTGTG | 0.999 ± 0.0037 |
| AAATTGTTTG | 0.989 ± 0.041 |
| AAATTTGCCA | 0.9566 ± 0.0066 |
| AAATTTGGTA | 1.04 ± 0.021 |
| AAATTTTACT | 1.02 ± 0.031 |
| AAATTTTGGC | 1.1 ± 0.042 |
| AACAACAGGA | 1.03 ± 0.045 |
| AACAACATAG | 1.02 ± 0.036 |
| AACAAGCTAT | 1.03 ± 0.055 |
| AACAAGGGCG | 1.03 ± 0.018 |
| AACAGAGGGG | 1.01 ± 0.018 |
| AACAGAGTAG | 0.976 ± 0.028 |
| AACAGATGGA | 1.16 ± 0.3 |
| AACAGGCGGG | 0.993 ± 0.027 |
| AACAGGGAAG | 1.02 ± 0.012 |
| AACAGGGGGA | 1.09 ± 0.14 |
| AACAGGGTGG | 1.016 ± 0.0021 |
| AACAGGGTTT | 1.01 ± 0.075 |
| AACAGTATTT | 1.04 ± 0.011 |
| AACAGTGAGC | 1.039 ± 0.0056 |
| AACAGTGTTT | 0.971 ± 0.065 |
| AACATACAGG | 1.28 ± 0.019 |
| AACATAGGTC | 1.06 ± 0.04 |

| Sequence | switch fluorescence ratio |
| --- | --- |
| AACATAGTCA | 1.006 ± 0.0024 |
| AACATATTGG | 1.01 ± 0.073 |
| AACATGGGTT | 1.01 ± 0.031 |
| AACATGTCCT | 1.04 ± 0.031 |
| AACATTCGTT | 1.034 ± 0.0042 |
| AACATTGGTC | 1.01 ± 0.017 |
| AACCACAGGA | 1.057 ± 0.0019 |
| AACCACTTTA | 1.06 ± 0.021 |
| AACCAGAAGG | 1.01 ± 0.035 |
| AACCAGTGGC | 1.06 ± 0.079 |
| AACCAGTTTT | 0.98 ± 0.027 |
| AACCATCGGG | 0.976 ± 0.013 |
| AACCCATTTG | 1.29 ± 0.48 |
| AACCCGTTTC | 1.09 ± 0.07 |
| AACCGAACGA | 2.09 ± 0.072 |
| AACCGCGCTT | 1.18 ± 0.083 |
| AACCGGCTTA | 0.999 ± 0.026 |
| AACCGGGGAC | 1.31 ± 0.23 |
| AACCGTTTTT | 1.05 ± 0.063 |
| AACCTATTAT | 0.998 ± 0.019 |
| AACCTCTCAT | 1.08 ± 0.011 |
| AACCTGGGGA | 1.12 ± 0.19 |
| AACCTGGGGC | 1.15 ± 0.044 |
| AACCTGGGGT | 1.02 ± 0.0073 |
| AACCTTATCA | 1.07 ± 0.02 |

| Sequence | switch fluorescence ratio |
| --- | --- |
| AACCTTTTGG | 1.03 ± 0.048 |
| AACGAGAGGA | 0.986 ± 0.012 |
| AACGCGACAT | 1.29 ± 0.022 |
| AACGCGGGGG | 0.983 ± 0.044 |
| AACGCGGTGG | 0.941 ± 0.017 |
| AACGGCCGTG | 1.02 ± 0.046 |
| AACGGCGGTG | 1.01 ± 0.019 |
| AACGGGCCAG | 0.997 ± 0.028 |
| AACGGTGCGG | 1.01 ± 0.026 |
| AACGGTGGTC | 1.03 ± 0.075 |
| AACGTAAATA | 1.11 ± 0.053 |
| AACGTAGATA | 1.042 ± 0.0098 |
| AACGTAGGTA | 1.038 ± 0.0051 |
| AACGTATGGG | 1.03 ± 0.039 |
| AACGTATGTT | 0.9895 ± 0.0028 |
| AACGTCTGGA | 0.9725 ± 0.0037 |
| AACGTGGCGA | 1.03 ± 0.047 |
| AACGTGTGGA | 0.9979 ± 0.0093 |
| AACGTTAATT | 1.025 ± 0.0081 |
| AACGTTGCTT | 1.01 ± 0.013 |
| AACGTTGGAG | 1.02 ± 0.019 |
| AACTAAATCT | 1.023 ± 0.00042 |
| AACTAACGTG | 1.3 ± 0.056 |
| AACTACCAGA | 1.062 ± 0.0045 |
| AACTAGCCGG | 0.961 ± 0.025 |

| Sequence | switch fluorescence ratio |
| --- | --- |
| AACTAGGCGC | 0.9875 ± 0.0065 |
| AACTAGGGCT | 0.976 ± 0.028 |
| AACTATTCGG | 0.9788 ± 0.0054 |
| AACTCCAGGG | 1.35 ± 0.2 |
| AACTCCTAAG | 1.03 ± 0.021 |
| AACTCGGGGT | 1.02 ± 0.05 |
| AACTCTGTTA | 0.982 ± 0.03 |
| AACTGCAATT | 2 ± 1.1 |
| AACTGGATAT | 1.04 ± 0.017 |
| AACTGGGGAA | 0.973 ± 0.016 |
| AACTGGGGAT | 0.9809 ± 0.0018 |
| AACTGGGGGA | 1.06 ± 0.054 |
| AACTGGGGTA | 0.977 ± 0.01 |
| AACTGGGGTT | 0.9868 ± 0.0035 |
| AACTGTAGAC | 1.121 ± 0.0022 |
| AACTGTGGAT | 0.999 ± 0.034 |
| AACTGTGTAC | 1.056 ± 0.0085 |
| AACTGTGTTT | 0.983 ± 0.04 |
| AACTGTTCTT | 1.01 ± 0.011 |
| AACTGTTTGC | 0.983 ± 0.04 |
| AACTTGGCAT | 1.02 ± 0.011 |
| AACTTGGTGG | 0.944 ± 0.033 |
| AACTTGTCAT | 1 ± 0.0063 |
| AACTTTATCC | 1.09 ± 0.042 |
| AACTTTATTT | 0.992 ± 0.018 |

| Sequence | switch fluorescence ratio |
| --- | --- |
| AAGAAGAACA | 1.02 ± 0.02 |
| AAGAAGGAAC | 1 ± 0.02 |
| AAGAAGGATG | 0.982 ± 0.049 |
| AAGAAGGGAG | 0.982 ± 0.01 |
| AAGAAGGTTG | 0.9847 ± 0.0061 |
| AAGAAGTTGC | 0.9861 ± 0.0034 |
| AAGAAGTTTT | 1 ± 0.035 |
| AAGACCGGGG | 1.0215 ± 0.00047 |
| AAGACTCACG | 1.05 ± 0.052 |
| AAGACTGTGC | 1.01 ± 0.022 |
| AAGAGAGTAT | 0.992 ± 0.0083 |
| AAGAGGGGAA | 0.988 ± 0.062 |
| AAGAGGGTTC | 1.02 ± 0.081 |
| AAGAGGTAGT | 1.02 ± 0.015 |
| AAGAGGTATA | 1.01 ± 0.032 |
| AAGAGGTTTG | 0.949 ± 0.013 |
| AAGAGTTCTT | 1.01 ± 0.03 |
| AAGATAGGGA | 0.9792 ± 0.0035 |
| AAGATAGGGG | 1 ± 0.023 |
| AAGATATAGA | 1.014 ± 0.0027 |
| AAGATATAT | 0.984 ± 0.035 |
| AAGATATTCT | 1.027 ± 0.0091 |
| AAGATGGCAG | 0.986 ± 0.029 |
| AAGATGTATG | 0.99 ± 0.02 |
| AAGATGTTAG | 0.9926 ± 0.0062 |

| Sequence | switch fluorescence ratio |
| --- | --- |
| AAGATGTTTG | 0.975 ± 0.021 |
| AAGATTCTCG | 1.004 ± 0.0095 |
| AAGATTTTGG | 0.979 ± 0.015 |
| AAGCAAATCT | 1.18 ± 0.04 |
| AAGCAACAGT | 1.094 ± 0.0035 |
| AAGCAGCCCT | 1.02 ± 0.015 |
| AAGCAGGGAT | 0.999 ± 0.033 |
| AAGCATAGGT | 0.995 ± 0.018 |
| AAGCCAAGTA | 1 ± 0.023 |
| AAGCCAGGCC | 1.03 ± 0.025 |
| AAGCCCCTTG | 0.992 ± 0.034 |
| AAGCCGTCGG | 1.02 ± 0.013 |
| AAGCCTAATG | 0.996 ± 0.017 |
| AAGCCTATTG | 0.961 ± 0.017 |
| AAGCCTGGAG | 1.02 ± 0.026 |
| AAGCCTGGTG | 1.6 ± 0.063 |
| AAGCCTTGGG | 1.02 ± 0.022 |
| AAGCCTTTGC | 1.052 ± 0.0041 |
| AAGCGCCTTT | 0.985 ± 0.02 |
| AAGCGCTGTT | 1.003 ± 0.0073 |
| AAGCGGACGG | 0.9536 ± 0.0046 |
| AAGCGGCGTA | 1.01 ± 0.042 |
| AAGCGGCTTC | 0.988 ± 0.013 |
| AAGCGGTAGG | 1.03 ± 0.015 |
| AAGCGGTGAG | 0.989 ± 0.031 |

| Sequence | switch fluorescence ratio |
| --- | --- |
| AAGCTAGTAA | 0.865 ± 0.012 |
| AAGCTGGCGG | 0.9911 ± 0.0096 |
| AAGCTTGAAG | 1.01 ± 0.013 |
| AAGGAAGAAA | 0.974 ± 0.068 |
| AAGGAAGACT | 0.974 ± 0.021 |
| AAGGAAGGAG | 1.03 ± 0.038 |
| AAGGAATAGC | 1.044 ± 0.002 |
| AAGGAGGGAG | 0.992 ± 0.026 |
| AAGGAGGTTG | 0.999 ± 0.053 |
| AAGGAGTATT | 1.01 ± 0.026 |
| AAGGAGTTGG | 0.989 ± 0.025 |
| AAGGATGGGA | 1 ± 0.023 |
| AAGGATGTGT | 0.98 ± 0.012 |
| AAGGATTATA | 0.985 ± 0.061 |
| AAGGATTCCA | 0.981 ± 0.014 |
| AAGGCCTTCG | 1.12 ± 0.021 |
| AAGGCGCGGC | 0.9694 ± 0.0088 |
| AAGGCGGCAT | 1 ± 0.044 |
| AAGGCGGCGG | 0.991 ± 0.034 |
| AAGGCGGGGT | 0.997 ± 0.033 |
| AAGGCGGTCA | 1.01 ± 0.04 |
| AAGGCGTCGG | 0.993 ± 0.026 |
| AAGGCTGTAA | 0.97831 ± 0.0009 |
| AAGGGAAAAA | 1.03 ± 0.092 |
| AAGGGAAAGA | 1.02 ± 0.061 |
